Data from publication PMC6478338, “Peptide barcoding for establishment of new types of genotype–phenotype linkages” (PLoS ONE, 2019).

B1: Anti-CD4-FLAG nanobody (VHH)
VHH: EVQLVESGGGSVQPGGSLTLSCGTSGRTFNVMGWFRQAPGKEREFVAAVRWSSTGIYYTQYADSVKSRFTISRDNAKNTVYLEMNSLKPEDTAVYYCAADTYNSNPARWDGYDFRGQGTQVTVSS
notes: also called anti-CD4 nanobody; source: Pichia pastoris GS115, secreted; culture supernatant filtered, concentrated and buffer-replaced with PBS
B2: Anti-CD4-FLAG-Barcode 1 nanobody (VHH)
VHH: B1 VHH
notes: also called peptide-barcoded anti-CD4 nanobody; source: Pichia pastoris GS115, secreted; culture supernatant filtered, concentrated and buffer-replaced with PBS; purified with anti-FLAG gels (immunostaining)

Molecular target: T1, Recombinant human sCD4 CF (Homo sapiens, UniProt P01730)
T1 construct: CD4, human, soluble recombinant form (sCD4, carrier-free); it is probably the extracellular domain of CD4 (surmised); also called recombinant CD4; source: bought: R&D Systems
Experiment: SPR; Biacore T-200; sCD4 (2486.9 RU) or GFP (1189.8 RU) immobilised on CM5 chip; nanobodies flowed in HBS-EP (0.01 M HEPES pH 7.4, 0.15 M NaCl, 3 mM EDTA, 0.005% P20): anti-CD4 0.2-1.0 uM, anti-GFP 0.5-50 nM; 30 uL/min, contact 120 s, dissociation 120 s
Details: both partners purified

| Binder | Kd [nM] | koff [s⁻¹] | kon [M⁻¹ s⁻¹] |
| --- | --- | --- | --- |
| B1 | 42 | 0.0054 | 68000 |
| B2 | 52 | 0.004 | 77000 |
